Source: patent US12692524B2, “Sialyltransferases and their use in producing sialylated oligosaccharides” (Chr. Hansen A/S, priority 2017, dated 2026)

How the values were obtained:
[1] = In vitro kinetics (Km, Vmax), donor substrate CMP-Neu5Ac; type: biochemical; details: 30° C., pH7.5, protein extract
Procedure: To rank the best performing sialyltransferases, their Km values for donor and acceptor substrates were determined in vitro. Escherichia coli BL21(DE3) strain #287 was used for overproduction of the enzymes. Cells were incubated in 100 ml 2YT medium in shaking flasks supplemented with 100 μg m^−1 ampicillin at 30° C. until an OD600 of 0.3 was reached. Then, 0.3 mM IPTG was added and the incubation was continued for 12 to 16 hours. Cells were harvested by centrifugation and mechanically disrupted in a defined volume of 50 mM Tris-HCl pH7.5 using glass beads. The protein extract was kept on ice until the assay started. The in vitro assay was carried out in a total volume of 50 μl including 50 mM Tris-HCl pH7.5, 5 mM MgCl2 and varying concentrations of CMP-Neu5Ac (0.05-30 mM) as well as of lactose or LNT (0.1-50 mM). The assay started with the addition of 35 to 750 μg protein extract. After 1 to 10 minutes of incubation at 30° C., the assay was inactivated at 95° C. for 5 minutes. Product formation was determined by mass spectrometry. Data were evaluated using the enzyme kinetic module of SigmaPlot v12.5 to calculate Km and Vmax.
Their kinetic parameters for CMP-Neu5Ac and LNT as well as lactose are depicted in Table 6.

[2] = Batch fermentation of LNT-producing E. coli BL21(DE3) #2130 expressing sialyltransferases, TLC of intracellular fraction; type: cell-based, Escherichia coli BL21(DE3); details: strain #2130, 3 mM lactose, 3 mM sialic acid, 48 hours after induction, validated by mass spectrometry
Description: Escherichia coli BL21(DE3) strain #534 was used to construct a lacto-N-tetraose (LNT) producing strain. The β-1,3-N-acetylglucosaminyltransferase gene IgtA from Neisseria meningitidis MC58 (acc. no. NP_274923) was codon-optimized for expression in E. coli and prepared synthetically by gene synthesis. Together with the gene galT, encoding a galactose-1-phosphate uridylyltransferase from E. coli K-12 substr. MG1655 (acc. no. NP_415279), that was similarly obtained by gene synthesis, IgtA was inserted by transposition (SEQ ID NO: 188) using plasmid pEcomar-IgtA-galT. To enhance de novo synthesis of UDP-N-acetylglucosamine, genes encoding L-glutamine:D-fuctose-6-phosphate aminotransferase (glmS), phosphoglucosamine mutase from E. coli K-12 substr. MG1655 (glmM) and N-acetylglucosamine-1-phosphate uridyltransferase/glucosamine-1-phosphate acetyltransferase (glmU) from E. coli K-12 substr. MG1655 (acc. no. NP_418185, NP_417643, NP_418186, respectively) were codon-optimized and obtained by gene synthesis. The operon glmUM was cloned under the control of constitutive tetracyclin promoter Ptet while glmS was cloned under the constitutive PT5 promoter. […]

B1: SiaT9: sialyltransferase of Vibrio sp. JT-FAJ-16, acc. BAF91160, SEQ ID NO: 2 (protein, listed as Vibrio sp.)
chain: MNNDNSTTTNNNAIEIYVDRATLPTIQQMTKIVSQKTSNKKLISWSRYPITDKSLLKKINAEFFKEQFELTESLKNIILSENIDNLIIHGNTLWSIDVVDIIKEVNLLGKNIPIELHFYDDGSAEYVRIYEFSKLPESEQKYKTSLSKNNIKFSIDGTDSFKNTIENIYGFSQLYPTTYHMLRADIFDTTLKINPLRELLSNNIKQMKWDYFKDFNYKQKDIFYSLTNFNPKEIQEDFNKNSNKNFIFIGSNSATATAEEQINIISEAKKENSSIITNSISDYDLFFKGHPSATFNEQIINAHDMIEINNKIPFEALIMTGILPDAVGGMGSSVFFSIPKEVKNKFVFYKSGTDIENNSLIQVMLKLNLINRDNIKLISDI
With B1 the Km [1] was 960 µM, the “Vmax CMP-Neu5Ac” value [1] was 0.16 µmol/min and the “Intracellular formation of sialyllacto-N-tetraose” value [2] was “LST-a”.

B2: SiaT19: sialyltransferase of Photobacterium leiognathi JT-SHIZ-145, acc. BAF91416, SEQ ID NO: 30 (protein, listed as Photobacterium leiognathi)
chain: MNDNQNTVDVVVSTVNDNVIENNTYQVKPIDTPTTFDSYSWIQTCGTPILKDDEKYSLSFDFVAPELDQDEKFCFEFTGDVDGKRYVTQTNLTVVAPTLEVYVDHASLPSLQQLMKIIQQKNEYSQNERFISWGRIRLTEDNAEKLNAHIYPLAGNNTSQELVDAVIDYADSKNRLNLELNTNTGHSFRNIAPILRATSSKNNILISNINLYDDGSAEYVSLYNWKDTDNKSQKLSDSFLVLKDYLNGISSEKPNGIYSIYNWHQLYHSSYYFLRKDYLTVETKLHDLREYLGGSLKQMSWDTFSQLSKGDKELFLNIVGFDQEKLQQEYQQSELPNFVFTGTTTWAGGETKEYYAQQQVNVVNNAINETSPYYLGREHDLFFKGHPRGGIINDIILGSFNNMIDIPAKVSFEVLMMTGMLPDTVGGIASSLYFSIPAEKVSFIVFTSSDTITDREDALKSPLVQVMMTLGIVKEKDVLFWC
For B2, the Km [1] was 1100 µM, the “Vmax CMP-Neu5Ac” value [1] was 0.09 µmol/min and the “Intracellular formation of sialyllacto-N-tetraose” value [2] was “LST-b”.
